Data: US20240067758A1 (UCB, published 2024)
“And” between values parts separate entries of the source, which are not always exact repeats. Equal entries are not always repeated. Where two headings read alike, the source gives them in different places. Each block holds one binder with its values, some of them ahead of it.

Legend:
[1] = target: T1, Human IL22 (human, UniProt Q9GZX6 34-179); experiment: SPR (Biacore); human IL22
T1 construct: IL22 of the Biacore and cell assays
T1 sequence: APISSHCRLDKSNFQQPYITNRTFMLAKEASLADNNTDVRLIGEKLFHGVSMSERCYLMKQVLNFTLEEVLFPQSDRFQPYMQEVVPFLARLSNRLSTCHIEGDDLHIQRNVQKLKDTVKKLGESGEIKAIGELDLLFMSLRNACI

[2] = target: T1, Human IL22; experiment: SPR (Biacore); human IL22; remark: listed apart in the source
[3] = target: T1, Human IL22; experiment: SPR; non-stressed T0 sample of the deamidation stress study
[4] = target: T2, Mouse IL13 (mouse, UniProt P20109 26-131, limits assumed); experiment: SPR Biacore T200; TrYbe captured on anti-human F(ab')2, mouse IL13 titrated
T2 sequence (looked up): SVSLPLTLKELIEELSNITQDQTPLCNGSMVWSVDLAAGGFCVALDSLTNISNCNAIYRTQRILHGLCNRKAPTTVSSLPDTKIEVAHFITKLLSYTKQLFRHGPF

[5] = target: T3, Human IL13 (human, UniProt P35225 35-146, limits assumed); experiment: cell-based or functional assay
[6] = target: T1, Human IL22; experiment: cell-based or functional assay
[7] = target: T1, Human IL22; experiment: SPR; sample stressed 2 weeks at 37 °C, pH 8.0 (Asn95 of light chain CDR3 >40% deamidated)
[8] = target: T3, Human IL13; experiment: SPR Biacore T200; TrYbe captured on anti-human F(ab')2, analyte 10-0.3125 nM; mean KD
Experimental: (§1) BIA (Biomolecular Interaction Analysis) was performed using T200 (GE Healthcare). Affinipure IgG-F(ab′)₂ Fragment goat anti-human IgG, F(ab′)₂ fragment specific (Jackson ImmunoResearch) was immobilized on a CM5 Sensor Chip via amine coupling chemistry to a capture level of ˜5000 response units (RUs). HBS-EP+buffer (10 mM HEPES pH 7.4, 0.15 M NaCl, 3 mM EDTA, 0.05% Surfactant P20, GE Healthcare) was used as the running buffer with a flow rate of 10 μL/min.
(§2) The surface was generated by 2×10 μL injections of 50 mM HCl, interspersed by a 10 μL injection of 5 mM NaOH at flowrate of 10 μL/min. Background subtraction binding curves were analyzed using the T200 evaluation software (version 3.0) following standard procedures. Kinetic parameters were determined from the fitting algorithm.

[9] = target: T4, Mouse IL22 (mouse, UniProt Q9JJY9 34-179); experiment: as above
T4 sequence (looked up): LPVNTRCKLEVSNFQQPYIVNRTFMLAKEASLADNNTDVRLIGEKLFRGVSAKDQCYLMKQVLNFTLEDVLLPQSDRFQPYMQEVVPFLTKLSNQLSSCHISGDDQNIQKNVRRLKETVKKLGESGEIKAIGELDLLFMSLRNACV
Experimental: as §1, §2

[10] = target: T1, Human IL22; experiment: as above
Experimental: as §1, §2

[11] = target: T5, Cynomolgus IL13 (cynomolgus, UniProt Q0PW92 21-132); experiment: as above
T5 construct: also called Cyno IL-13
Experimental: as §1, §2

[12] = target: T6, Cynomolgus IL22 (cynomolgus, UniProt G7PHZ7 34-179); experiment: as above
T6 construct: also called Cyno IL22; Cyno IL-22
T6 sequence: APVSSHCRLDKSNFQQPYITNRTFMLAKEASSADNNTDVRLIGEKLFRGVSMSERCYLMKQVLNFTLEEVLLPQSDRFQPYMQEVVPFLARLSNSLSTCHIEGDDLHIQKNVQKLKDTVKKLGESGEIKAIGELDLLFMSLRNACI
Experimental: as §1, §2

[13] = target: T7, Cynomolgus Albumin (cynomolgus, UniProt A2V9Z4 25-608); experiment: SPR Biacore T200; TrYbe captured on anti-human F(ab')2, analyte 100-3 nM; mean KD
T7 construct: also called Cyno Albumin
Experimental: as §1, §2

[14] = target: Mouse Albumin (mouse, UniProt P07724 25-608); experiment: as above
Experimental: as §1, §2

[15] = target: T8, Human Albumin (human, UniProt P02768 25-609); experiment: as above
T8 construct: also called human serum albumin; HSA
Experimental: as §1, §2

[16] = target: T1, Human IL22; experiment: cell-based or functional assay; remark: listed apart in the source
[17] = target: T3, Human IL13; experiment: cell-based or functional assay; remark: listed apart in the source
[18] = target: T3, Human IL13; experiment: cell-based or functional assay; remark: listed apart in the source
[19] = target: T3, Human IL13; experiment: cell-based or functional assay; remark: listed apart in the source
[20] = target: T1, Human IL22; experiment: cell-based or functional assay; remark: listed apart in the source
[21] = target: T1, Human IL22; experiment: SPR Biacore T200; mean KD
Experimental: as §1, §2

Kd [1]: 0.049 nM
B1: 11070 (Fab, V domains shown)
VH: EVQLQESGPGLVQPSQTLSPTCTVSGFSLTSYSVHWVRQHSGKSLEWMGRMWSDGDTSYNSAFTSRLSITRDTSKSQVFLKMNSLQTEDTGTYYCARSLDFYYDTTLAFWGPGTTVTVSS
VL: DIVMTQTPSNLAASPGESVSINCKASKTISKYLAWYQQKPGKANKLLIYSGSTLQSGTPSRFSGSGSSTDFTLTIRNLEPEDFGLYYCQQHNEYPLTFGSGTKLEIK

Kd [2]: 0.569 nM
B2: 11041 (parental) (Fab, V domains shown)
VH: QSVEESGGRLVTPGTPLTLTCTVSGFSLSSYAMIWVRQAPGEGLEWIGIIDIDGSTYYASWAKGRFTISRTSTTVDLKITSPTTGDTATYFCARDRFVGVDIFDPWGPGTLVTVSS
VL: AVVLTQTASPVSAPVGGTVTIKCQASEDIYTNLAWYQQKPGQPPKLLIYWASTLASGVPSRFKGSGSGTEFTLTISDLECADAATYYCQACVYGNSADSRYTFGGGTEVVVK

Kd [3]: 0.026 nM | koff [3]: 3.1e-05 s⁻¹ | kon [3]: 1.2e+06 M⁻¹ s⁻¹ | binding result [4]: no binding (tested: 10 nM to 0.3125 nM) | IC50 (read off the curve), inhibition of eotaxin-3 secretion, primary human keratinocytes stimulated with IL-13 and IL-22 at 100 ng/ml [5]: ~6 nM | IC50 (M) Geomean; IL22-induced IL-10 release, COLO205 cells; batch PB7916 (N = 4) [6]: 3.4e-11 M | IC50 (M) Geomean; IL22-induced IL-10 release, COLO205 cells; batch PB8056 (N = 4) [6]: 3.66e-11 M | Kd [7]: 0.03 nM | koff [7]: 3.2e-05 s⁻¹ | kon [7]: 1.1e+06 M⁻¹ s⁻¹ | Kd [8]: < 0.1 nM | Kd [9]: 14 to 25 nM | Kd [10]: < 0.1 nM | Kd [11]: < 0.25 nM | Kd [12]: < 0.1 nM | Kd [13]: 1 to 3 nM | Kd [14]: 5 to 6 nM | Kd [15]: 1 to 3 nM
B3: IL13/IL22 TrYbe (other)
heavy: EVQLVESGGGLVQPGGSLRLSCAVSGFSLSSYAMIWVRQAPGKGLEWIGIIDIEGSTYYASWAKGRFTISRDNSKNTVYLQMNSLRAEDTAVYYCARDRFVGVDIFDPWGQGTLVTVSSASTKGPSVFPLAPSSKSTSGGTAALGCLVKDYFPEPVTVSWNSGALTSGVHTFPAVLQSSGLYSLSSVVTVPSSSLGTQTYICNVNHKPSNTKVDKKVEPKSCSGGGGSGGGGSEVQLLESGGGLVQPGGSLRLSCAVSGIDLSNYAINWVRQAPGKCLEWIGIIWASGTTFYATWAKGRFTISRDNSKNTVYLQMNSLRAEDTAVYYCARTVPGYSTAPYFDLWGQGTLVTVSSGGGGSGGGGSGGGGSGGGGSDIQMTQSPSSVSASVGDRVTITCQSSPSVWSNFLSWYQQKPGKAPKLLIYEASKLTSGVPSRFSGSGSGTDFTLTISSLQPEDFATYYCGGGYSSISDTTFGCGTKVEIKRT
light: AVQLTQSPSSLSASVGDRVTITCQASEDIYTNLAWYQQKPGKAPKLLIYWASTLASGVPSRFSGSGSGTDFTLTISSLQPEDFATYYCQASVYGNAADSRYTFGGGTKVEIKRTVAAPSVFIFPPSDEQLKSGTASVVCLLNNFYPREAKVQWKVDNALQSGNSQESVTEQDSKDSTYSLSSTLTLSKADYEKHKVYACEVTHQGLSSPVTKSFNRGECSGGGGSGGGGSEVQLVQSGAEVKKPGSSVKVSCKASGYSFTSYYIHWVRQAPGQCLEWMGRIGPGSGDINYNEKFKGRATFTVDKSTSTAYMELSSLRSEDTAVYYCARFHYDGADWGQGTLVTVSSGGGGSGGGGSGGGGSGGGGSDIQMTQSPSSLSASVGDRVTITCKASQNINENLDWYQQKPGKAPKLLIYYTDILQTGIPSRFSGSGSGTDYTLTISSLQPEDFATYYCYQYYSGYTFGCGTKLEIKRT
notes: also called batches PB8056 and PB7916

IC50 (M) Geomean; IL22-induced IL-10 release, COLO205 cells; PB8920 (N = 2) [16]: 6.38e-11 M | IC50 (pM) Geomean, N = 2; STAT-6 reporter assay, HEK-Blue IL-4/IL13 cells; PB8841 [17]: 3.4 pM | IC50 (pM) Geomean, N = 2; STAT-6 reporter assay, HEK-Blue IL-4/IL13 cells; PB8920 [18]: 2.9 pM | IC50 (pM), concatenated IC50 values; STAT-6 reporter assay; PB8920 [18]: 2.1 pM and 4 pM | IC50 (read off the curve), inhibition of eotaxin-3 secretion, primary human keratinocytes stimulated with IL-13 and IL-22 at 100 ng/ml [19]: ~5 nM | IC50 (M) Geomean; IL22-induced IL-10 release, COLO205 cells; PB8841 (N = 2) [20]: 6.59e-11 M
B4: IL13K/IL22H knob in hole bispecific (bispecific antibody, human IgG4 S228P, kappa)
heavy 1: not shown
light 1: DIQMTQSPSSLSASVGDRVTITCKASQNINENLDWYQQKPGKAPKLLIYYTDILQTGIPSRFSGSGSGTDYTLTISSLQPEDFATYYCYQYYSGYTFGQGTKLEIKRTVAAPSVFIFPPSDEQLKSGTASVVCLLNNFYPREAKVQWKVDNALQSGNSQESVTEQDSKDSTYSLSSTLTLSKADYEKHKVYACEVTHQGLSSPVTKSFNRGEC
heavy 2: EVQLVESGGGLVQPGGSLRLSCAVSGFSLSSYAMIWVRQAPGKGLEWIGIIDIEGSTYYASWAKGRFTISRDNSKNTVYLQMNSLRAEDTAVYYCARDRFVGVDIFDPWGQGTLVTVSSASTKGPSVFPLAPCSRSTSESTAALGCLVKDYFPEPVTVSWNSGALTSGVHTFPAVLQSSGLYSLSSVVTVPSSSLGTKTYTCNVDHKPSNTKVDKRVESKYGPPCPPCPAPEFLGGPSVFLFPPKPKDTLMISRTPEVTCVVVDVSQEDPEVQFNWYVDGVEVHNAKTKPREEQFNSTYRVVSVLTVLHQDWLNGKEYKCKVSNKGLPSSIEKTISKAKGQPREPQVYTLPPSQEEMTKNQVSLSCAVKGFYPSDIAVEWESNGQPENNYKTTPPVLDSDGSFFLVSRLTVDKSRWQEGNVFSCSVMHEALHNHYTQKSLSLSLGK
light 2: AVQLTQSPSSLSASVGDRVTITCQASEDIYTNLAWYQQKPGKAPKLLIYWASTLASGVPSRFSGSGSGTDFTLTISSLQPEDFATYYCQASVYGNAADSRYTFGGGTKVEIKRTVAAPSVFIFPPSDEQLKSGTASVVCLLNNFYPREAKVQWKVDNALQSGNSQESVTEQDSKDSTYSLSSTLTLSKADYEKHKVYACEVTHQGLSSPVTKSFNRGEC

Kd [21]: < 0.1 nM
B5: TrYbe molecule with 11070 gL7gH16 IL22 domain (other)
VL: DIQMTQSPSSVSASVGDRVTITCKASKTISKYLAWYQQKPGKANKLLIYSGSTLQSGVPSRFSGSGSGTDFTLTISSLQPEDFATYYCQQHNEYPLTFGQGTKLEIK
VH: EVQLQESGPGLVKPSQTLSLTCTVSGFSLTSYSVHWVRQHPGKGLEWIGRMWSDGDTSYNTAFTSRLTISRDTSKNQVSLKLSSVTAADTAVYYCARSLDFYYDTTLAFWGQGTTVTVSS
